Measured values taken from patent US20260098072A1, “METHODS OF STIMULATING APPETITE AND/OR INCREASING BODY WEIGHT USING NON-NATURALLY OCCURRING MELANOCORTIN RECEPTOR ANTAGONIST ANALOGS” (Endevica Bio, Inc., priority 2022, published 2026).
Where “and” joins values, the source holds several entries; their conditions need not be identical. Equal entries are not always repeated. Structures can show the parent of a compound that is named as a salt. Positions of bridges follow the written chain, without caps; N, C: chain ends. Non-standard residues stand in square brackets, D forms with d. Residues, ends and D or L forms follow the SMILES beside them. No end group written: not given here. d2Nal = N[C@H](Cc1ccc2ccccc2c1)C(=O)O; Hyp = O=C(O)[C@@H]1C[C@@H](O)CN1; Nle = CCCC[C@H](N)C(=O)O

Key:
human MC3R = biological target: T1, human MC3R (Homo sapiens, UniProt P41968); assay: cAMP accumulation assay (HTRF), antagonist activity at MC3R; format: cell-based; conditions: for Emax / IC50: HEK293/CRE-luc/MC3R; for Emax: 0.1 nM to 1,000 nM, read-out: Max Activation %; for Hill Coefficient / Top (%): dose-response fit, MC3R; for IC50: estimated from dose-response curve
T1 construct: expressed in transfected cells; host or cells: HEK293/CRE-luc/MC3R
T1 sequence (P41968 whole entry): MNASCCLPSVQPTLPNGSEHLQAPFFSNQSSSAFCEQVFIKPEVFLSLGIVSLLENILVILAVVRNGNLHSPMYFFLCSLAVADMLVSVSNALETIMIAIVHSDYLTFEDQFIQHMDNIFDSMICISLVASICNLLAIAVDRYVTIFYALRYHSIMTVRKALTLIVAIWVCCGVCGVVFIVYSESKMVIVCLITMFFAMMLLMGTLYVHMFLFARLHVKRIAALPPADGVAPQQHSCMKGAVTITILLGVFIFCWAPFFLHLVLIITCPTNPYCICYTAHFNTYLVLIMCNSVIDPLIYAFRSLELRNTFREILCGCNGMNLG
Description: (§1) The antagonist activity of exemplary non-naturally occurring melanocortin analogs (SEQ ID NOs: 3, 4, 6, 9-11, 14, 15, and 291-309) at the melanocortin 3 receptor (MC3R) and melanocortin 4 (MC4R) receptor was measured via cAMP accumulation assay, according to the following procedure.
(§2) Recombinant cell lines shown in Table 1 were stimulated with melanocortin receptor antagonists and evaluated for cyclic adenosine monophosphate (cAMP) levels as a measurement of receptor activation. cAMP levels were quantified using Homogeneous Time-Resolved Fluorescence (HTRF). The stimulation and CAMP measurement were performed sequentially. First, the compound stimulated the G-protein coupled receptor (GPCR) which then induced downstream signaling, which was measured soon after. Cell lines and stimulated receptors used are detailed in Table 1.
(§3) Twenty-seven exemplary synthetic peptides were tested for antagonist activity at the human MC3R and MC4R at concentrations ranging from 0.1 nM to 1,000 nM. After stimulation, the level of cyclic adenosine monophosphate (CAMP) in each well was quantified via Homogenous Time-Resolved Fluorescence (HTRF) as a measurement of receptor activity. Dose-response curves and estimated IC50 values were then obtained for each antagonist peptide against the MC3R and MC4R. HS024 (TFA) and was used as a positive control for the antagonist activity of MC3R (FIG. 1A) and MC4R (FIG. 1B).

human MC4R = biological target: T2, human MC4R (Homo sapiens, UniProt P32245); assay: cAMP accumulation assay (HTRF), antagonist activity at MC4R; format: cell-based; conditions: for Emax: HEK293, HEK293/MC4R/CRE-GFP, 0.1 nM to 1,000 nM, read-out: Max Activation %; for Hill Coefficient / Top (%): dose-response fit, MC4R; for IC50: HEK293/MC4R/CRE-GFP, estimated from dose-response curve
T2 construct: expressed in transfected cells; host or cells: HEK293/MC4R/CRE-GFP
T2 sequence (P32245 whole entry): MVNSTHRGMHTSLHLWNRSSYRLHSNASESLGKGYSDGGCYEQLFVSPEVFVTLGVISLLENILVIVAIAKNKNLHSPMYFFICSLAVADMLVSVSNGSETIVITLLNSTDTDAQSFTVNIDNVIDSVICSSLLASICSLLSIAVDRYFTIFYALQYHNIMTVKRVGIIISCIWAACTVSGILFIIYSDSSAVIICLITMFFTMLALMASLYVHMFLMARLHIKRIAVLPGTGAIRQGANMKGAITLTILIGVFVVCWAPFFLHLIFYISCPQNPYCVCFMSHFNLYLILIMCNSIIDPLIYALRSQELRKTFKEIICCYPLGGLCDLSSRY
Description: as §1, §2, §3

Emax (human MC3R) [%]	Hill Coefficient (human MC3R)	Top (%) (human MC3R)	Emax (human MC4R) [%]	Hill Coefficient (human MC4R)	Top (%) (human MC4R)	IC50 (human MC3R)	IC50 (human MC4R)	Molecule
74.5	0.73	4952.72	49.4	0.55	2739.03%	< 10 µM	> 10 µM	CCCC[C@H](NC(C)=O)C(=O)N[C@H]1CC(=O)NCCCC[C@@H](C(=O)N[C@@H](C(=O)N2CCC[C@@H]2C(N)=O)C(C)C)NC(=O)[C@H](Cc2c[nH]c3ccccc23)NC(=O)[C@H](CCCNC(=N)N)NC(=O)[C@@H](Cc2ccc3ccccc3c2)NC(=O)[C@H](Cc2c[nH]cn2)NC(=O)[C@@H]2CCCN2C1=O [Peptide D1, Ac-Nle-c(Asp-Pro-His-Dnal(2′)-Arg-Trp-Lys)-Dval-Dpro-NH2] (Ac-[Nle]DPH[d2Nal]RWK[dV][dP]-NH2; lactam 2-8)
111	0.98	113.20	117	0.80	119.03%	< 10 µM and 0.087 µM	< 10 µM and 0.0406 µM	CCCC[C@H](NC(C)=O)C(=O)N[C@H]1CC(=O)NCCCC[C@@H](C(=O)N[C@@H](C(=O)N2CCC[C@@H]2C(N)=O)C(C)C)NC(=O)[C@H](Cc2c[nH]c3ccccc23)NC(=O)[C@H](CCCNC(=N)N)NC(=O)[C@@H](Cc2ccc3ccccc3c2)NC(=O)[C@@H]2C[C@@H](O)CN2C1=O [Peptide D3, Ac-Nle-c(Asp-Hyp-Dnal(2′)-Arg-Trp-Lys)-Dval-Dpro-NH2] (Ac-[Nle]D[Hyp][d2Nal]RWK[dV][dP]-NH2; lactam 2-7)
50.1	0.65	2741.58	21	0.92	9354.39%	> 10 µM	–	CCCC[C@H](NC(C)=O)C(=O)N[C@H]1CC(=O)NCCCC[C@@H](C(=O)N[C@@H](C(=O)N2CCC[C@@H]2C(N)=O)C(C)C)NC(=O)[C@@H]2CCCN2C(=O)[C@H](Cc2c[nH]c3ccccc23)NC(=O)[C@H](CCCNC(=N)N)NC(=O)[C@@H](Cc2ccc3ccccc3c2)NC(=O)[C@@H]2C[C@@H](O)CN2C1=O [Peptide D4, Ac-Nle-c(Asp-Hyp-Dnal(2′)-Arg-Trp-Pro-Lys)-Dval-Dpro-NH2] (Ac-[Nle]D[Hyp][d2Nal]RWPK[dV][dP]-NH2; lactam 2-8)
24.6	1.04	472.61	41.5	0.67	2724.46%	> 10 µM	–	CCCC[C@H](NC(C)=O)C(=O)N[C@H]1CC(=O)NCCCC[C@@H](C(=O)N2CCC[C@@H]2C(=O)N[C@@H](C(N)=O)C(C)C)NC(=O)[C@H](Cc2c[nH]c3ccccc23)NC(=O)[C@H](CCCNC(=N)N)NC(=O)[C@@H](Cc2ccc3ccccc3c2)NC(=O)[C@H](Cc2c[nH]cn2)NC(=O)[C@@H]2CCCN2C1=O [Peptide D5, Ac-Nle-c(Asp-Pro-His-Dnal(2′)-Arg-Trp-Lys)-Dpro-Dval-NH2] (Ac-[Nle]DPH[d2Nal]RWK[dP][dV]-NH2; lactam 2-8)
–	−0.48	0.42	–	48.53	−2.85%	–	–	Ac-Leu-c(Asp-Pro-Trp-Arg-Trp-Lys)-Val-Pro-NH2 (Ac-LDPWRWKVP-NH2; lactam 2-7; SMILES CC(=O)N[C@@H](CC(C)C)C(=O)N[C@H]1CC(=O)NCCCC[C@@H](C(=O)N[C@H](C(=O)N2CCC[C@H]2C(N)=O)C(C)C)NC(=O)[C@H](Cc2c[nH]c3ccccc23)NC(=O)[C@H](CCCNC(=N)N)NC(=O)[C@H](Cc2c[nH]c3ccccc23)NC(=O)[C@@H]2CCCN2C1=O) [Peptide C2]
–	0.84	177.39	–	1.55	18.76%	–	–	Ac-Nle-c(Asp-His-Dnal(2′)-Arg-Trp-Pro-Lys)-Dval-Dpro-NH2 (Ac-[Nle]DH[d2Nal]RWPK[dV][dP]-NH2; lactam 2-8; SMILES CCCC[C@H](NC(C)=O)C(=O)N[C@H]1CC(=O)NCCCC[C@@H](C(=O)N[C@@H](C(=O)N2CCC[C@@H]2C(N)=O)C(C)C)NC(=O)[C@@H]2CCCN2C(=O)[C@H](Cc2c[nH]c3ccccc23)NC(=O)[C@H](CCCNC(=N)N)NC(=O)[C@@H](Cc2ccc3ccccc3c2)NC(=O)[C@H](Cc2c[nH]cn2)NC1=O) [Peptide D2]
–	0.23	6.49	–	0.08	51.32%	–	–	Ac-Nle-c(Asp-Pro-Trp-Arg-Trp-Lys)-Dval-Dpro-NH2 (Ac-[Nle]DPWRWK[dV][dP]-NH2; lactam 2-7; SMILES CCCC[C@H](NC(C)=O)C(=O)N[C@H]1CC(=O)NCCCC[C@@H](C(=O)N[C@@H](C(=O)N2CCC[C@@H]2C(N)=O)C(C)C)NC(=O)[C@H](Cc2c[nH]c3ccccc23)NC(=O)[C@H](CCCNC(=N)N)NC(=O)[C@H](Cc2c[nH]c3ccccc23)NC(=O)[C@@H]2CCCN2C1=O) [Peptide C1]
–	−57.42	0.80	–	10.57	–	–	–	IDPWRWKVP [Peptide C8]
–	13.82	−0.10	–	1.13	3.02%	–	–	IPWRWVP [Peptide C5]
–	−0.13	1.86	–	1.62	4.61%	–	–	LDPWRWKVP [Peptide C7]
–	−5.34	–	–	−7.31	−1.97%	–	–	LPWRWVP [Peptide C4]

The next lines start with the molecule.

Molecule	Emax (human MC3R) [%]	Hill Coefficient (human MC3R)	Top (%) (human MC3R)	Emax (human MC4R) [%]	Hill Coefficient (human MC4R)	Top (%) (human MC4R)	IC50 (human MC3R)	IC50 (human MC4R)
CCCC[C@@H]1NC(=O)[C@@H](NC(C)=O)CSSC[C@@H](C(N)=O)NC(=O)CNC(=O)[C@H](Cc2c[nH]c3ccccc23)NC(=O)[C@H](CCCNC(=N)N)NC(=O)[C@@H](Cc2ccc3ccccc3c2)NC(=O)[C@H](Cc2c[nH]cn2)NC(=O)[C@H](CCCNC(=N)N)NC1=O [HS024(TFA), reference compound] (Ac-C[Nle]RH[d2Nal]RWGC-NH2; disulfide 1-9 (inferred); N-terminus and C-terminus assumed)	102	0.93	117.07	104	0.61	113.93%	–	–
CCCC[C@H](NC(C)=O)C(=O)N[C@@H](CC(=O)O)C(=O)N1CCC[C@H]1C(=O)N[C@H](Cc1ccc2ccccc2c1)C(=O)N[C@@H](CCCNC(=N)N)C(=O)N[C@@H](Cc1c[nH]c2ccccc12)C(=O)N[C@@H](CCCCN)C(=O)N[C@@H](C(=O)N1CCC[C@@H]1C(N)=O)C(C)C [Peptide A1, Ac-Nle-Asp-Pro-Dnal(2′)-Arg-Trp-Lys-Dval-Dpro-NH2] (Ac-[Nle]DP[d2Nal]RWK[dV][dP]-NH2)	84.4	0.55	1002.64	–	0.43 and 0.32	1195.94% and 652.03%	< 10 µM	< 10 µM
Ac-Leu-c(Asp-Pro-Phe-Phe-Arg-Trp-Lys)-Val-Pro-NH2 (Ac-LDPFFRWKVP-NH2; lactam 2-8; SMILES CC(=O)N[C@@H](CC(C)C)C(=O)N[C@H]1CC(=O)NCCCC[C@@H](C(=O)N[C@H](C(=O)N2CCC[C@H]2C(N)=O)C(C)C)NC(=O)[C@H](Cc2c[nH]c3ccccc23)NC(=O)[C@H](CCCNC(=N)N)NC(=O)[C@H](Cc2ccccc2)NC(=O)[C@H](Cc2ccccc2)NC(=O)[C@@H]2CCCN2C1=O) [Peptide B2]	–	0.34	20.30	–	0.69	729.66%	–	–
Ac-Nle-Pro-Dnal(2′)-Arg-Trp-Dval-Dpro-NH2 (Ac-[Nle]P[d2Nal]RW[dV][dP]-NH2; SMILES CCCC[C@H](NC(C)=O)C(=O)N1CCC[C@H]1C(=O)N[C@H](Cc1ccc2ccccc2c1)C(=O)N[C@@H](CCCNC(=N)N)C(=O)N[C@@H](Cc1c[nH]c2ccccc12)C(=O)N[C@@H](C(=O)N1CCC[C@@H]1C(N)=O)C(C)C) [Peptide A2]	–	0.82	9.73	–	–	–	–	–
Ac-Nle-c(Asp-Pro-Phe-Phe-Arg-Trp-Lys)-Dval-Dpro-NH2 (Ac-[Nle]DPFFRWK[dV][dP]-NH2; lactam 2-8; SMILES CCCC[C@H](NC(C)=O)C(=O)N[C@H]1CC(=O)NCCCC[C@@H](C(=O)N[C@@H](C(=O)N2CCC[C@@H]2C(N)=O)C(C)C)NC(=O)[C@H](Cc2c[nH]c3ccccc23)NC(=O)[C@H](CCCNC(=N)N)NC(=O)[C@H](Cc2ccccc2)NC(=O)[C@H](Cc2ccccc2)NC(=O)[C@@H]2CCCN2C1=O) [Peptide B1]	–	1.05	–	–	7.57	–	–	–
IDPFFRWKVP [Peptide B8]	–	12.04	4.40	–	0.49	20.03%	–	–
IPFFRWVP [Peptide B5]	–	−0.76	736.17	–	1.22	–	–	–
LDPFFRWKVP [Peptide B7]	–	−0.84	7754.77	–	−1.76	516.09%	–	–
LPFFRWVP [Peptide B4]	–	0.36	29.62	–	1.90	16.60%	–	–
